According to patent publication US20210130838:

Key:
Experiment in all cases: cell_activity
[1] = tested on: BsCas12a (Butyrivibrio sp.?); details: PAM TTTV
[2] = tested on: CMaCas12a; details: PAM TTTV; rice protoplasts
[3] = tested on: MAD7; details: PAM TTTV
[4] = tested on: TsCas12a (Thiomicrospira sp.?); details: PAM TTTV; stable transgenic rice
[5] = tested on: BoCas12a; details: PAM TTTV; rice protoplasts
[6] = tested on: Lb5Cas12a; details: PAM TTTV; rice protoplasts
[7] = tested on: Mb2Cas12a
[8] = tested on: MbCas12a; details: PAM TTTV; rice protoplasts
[9] = tested on: MlCas12a; details: PAM TTTV; rice protoplasts

Sequence: AAGAAGGGUUAUGGCCAAUGCUU / TCCATTTGTTTGAAGAAGGGTTATGGCCAATGCTTGCCC / GGGCAAGCATTGGCCATAACCCTTCTTCAAACAAATGGA [crRNA OsEPFL9 spacer 23 nt ; OsEPFL9-TTTV target]
- activity ([1]; stable transgenic rice): > 80 % editing
- activity [2]: 5.1 % editing
- activity ([3]; stable transgenic rice): > 80 % editing
- activity [4]: > 80 % editing

Sequence: CAGAAAGAGAAGGAGGCACAGAU / CTTTTCCAGAAAGAGAAGGAGGCACAGATCTTGCCGT / ACGGCAAGATCTGTGCCTCCTTCTCTTTCTGGAAAAG [crRNA OsDEP1-TTTV spacer (inferred) ; OsDEP1-TTTV target]
- activity [5]: 7.8 % editing
- activity ([1]; rice protoplasts): 20.1 % editing
- activity [2]: 2.7 % editing
- activity [6]: 28.8 % editing
- activity ([3]; rice protoplasts): 34.1 % editing
- activity ([7]; PAM TTTV, rice protoplasts): 19.7 % editing
- activity [8]: 7.2 % editing
- activity [9]: 13.9 % editing

Sequence: CUCAAGGUGAGCGCCCCGCGGCG / GTTCCTCAAGGTGAGCGCCCCGCGGCGGCGGCGGCTG / CAGCCGCCGCCGCCGCGGGGCGCTCACCTTGAGGAAC [crRNA OsDEP1-TTV spacer (inferred) ; OsDEP1-TTV target]
- activity ([7]; PAM TTV, 22 C): 6.4 % indels

Sequence: CUGGGCUCGGCGUCCUCGACGUC / GAGTTGCTGGGCTCGGCGTCCTCGACGTCGTCCTCGCCG / CGGCGAGGACGACGTCGAGGACGCCGAGCCCAGCAACTC [crRNA OsR005-TTV spacer (inferred) ; OsR005-TTV target]
- activity ([7]; PAM TTV, 22 C): 8.3 % indels
